Here are results for one protein from article PMC2739136.

Data set [1] addresses T1, MBP-TraR A150E, P33905.
T1 chain: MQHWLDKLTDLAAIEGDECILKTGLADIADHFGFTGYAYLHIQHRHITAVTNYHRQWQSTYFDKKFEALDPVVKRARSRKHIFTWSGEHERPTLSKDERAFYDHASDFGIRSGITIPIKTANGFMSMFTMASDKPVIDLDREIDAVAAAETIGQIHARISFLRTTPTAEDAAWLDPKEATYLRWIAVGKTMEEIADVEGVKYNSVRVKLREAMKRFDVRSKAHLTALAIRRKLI
Nature of the data set: pull-down.

In data set [2] the target is T2, MBP-TraR V146E, P33905.
T2 chain: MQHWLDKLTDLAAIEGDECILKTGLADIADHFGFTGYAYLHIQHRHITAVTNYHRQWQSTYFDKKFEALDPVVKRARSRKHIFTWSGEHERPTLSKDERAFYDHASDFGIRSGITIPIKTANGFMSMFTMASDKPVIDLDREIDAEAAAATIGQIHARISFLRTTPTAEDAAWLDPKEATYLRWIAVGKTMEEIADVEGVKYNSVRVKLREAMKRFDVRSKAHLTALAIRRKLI
The experiment in a line: pull-down.

B1: native TraR (wild type) (protein)
chain: MQHWLDKLTDLAAIEGDECILKTGLADIADHFGFTGYAYLHIQHRHITAVTNYHRQWQSTYFDKKFEALDPVVKRARSRKHIFTWSGEHERPTLSKDERAFYDHASDFGIRSGITIPIKTANGFMSMFTMASDKPVIDLDREIDAVAAAATIGQIHARISFLRTTPTAEDAAWLDPKEATYLRWIAVGKTMEEIADVEGVKYNSVRVKLREAMKRFDVRSKAHLTALAIRRKLI
For the protein B1, the heterodimer formation (% of wild type) (% of wild type) in data set [1] was 14; in data set [2], 52.
